The record followed here is patent US20190233494A1 (Sanofi, published 2019).

Starred links: 1 amine or outer side, 2 acyl side, 3 side chain; linkers in the order of their positions; H or OH if unused. Non-standard residues stand in square brackets, D forms with d. Groups on a side chain read outwards from the residue. *: point of attachment. TTDS = 4-[3-[2-[2-(3-aminopropoxy)ethoxy]ethoxy]propylamino]-4-oxo-butanoyl; γGlu = O=C(O)[C@H](CCC(=O)[*:2])N[*:1]; Stearoyl = CCCCCCCCCCCCCCCCCC(=O)*; Palmitoyl = CCCCCCCCCCCCCCCC(=O)*; αMeK = C[C@](N)(CCCCN)C(=O)O; AEEA = NCCOCCOCC(=O)O; Aib = CC(C)(N)C(=O)O

This assay concerns the target T1, RXFP1 receptor (endogenous, on OVCAR5 cells) (UniProt Q9HBX9 1-757, limits assumed).
T1 sequence (looked up): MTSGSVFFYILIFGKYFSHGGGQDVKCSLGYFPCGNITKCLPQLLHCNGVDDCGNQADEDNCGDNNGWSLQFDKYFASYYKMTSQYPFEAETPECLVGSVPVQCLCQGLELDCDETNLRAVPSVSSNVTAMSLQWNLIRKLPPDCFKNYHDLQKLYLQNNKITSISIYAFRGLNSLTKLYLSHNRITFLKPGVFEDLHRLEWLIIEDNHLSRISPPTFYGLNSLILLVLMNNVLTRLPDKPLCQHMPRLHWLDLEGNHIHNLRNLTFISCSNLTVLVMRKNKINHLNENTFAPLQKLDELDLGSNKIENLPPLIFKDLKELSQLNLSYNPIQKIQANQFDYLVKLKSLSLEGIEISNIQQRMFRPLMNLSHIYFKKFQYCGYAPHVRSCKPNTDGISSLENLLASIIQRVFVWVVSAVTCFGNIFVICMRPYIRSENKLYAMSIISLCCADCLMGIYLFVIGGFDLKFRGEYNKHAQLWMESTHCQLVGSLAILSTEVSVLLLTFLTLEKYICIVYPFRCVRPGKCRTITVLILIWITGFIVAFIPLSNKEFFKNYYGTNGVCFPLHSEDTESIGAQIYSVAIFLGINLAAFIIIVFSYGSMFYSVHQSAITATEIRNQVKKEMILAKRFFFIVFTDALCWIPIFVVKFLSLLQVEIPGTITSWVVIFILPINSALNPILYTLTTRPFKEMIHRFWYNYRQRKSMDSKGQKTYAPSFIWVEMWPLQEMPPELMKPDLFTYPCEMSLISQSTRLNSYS
Briefly: cell-based or functional assay.

For the molecule Ac-LEGREKVRAK(Ac)I[Aib][Aib]EGK([TTDS-TTDS-γGlu-γGlu-γGlu-Palmitoyl])STWS[dK]RKK(Ac)-NH2 [peptide of SEQ ID NO: 18], the “EC50 (nM), OVCAR 5 cells (cAMP)” value is 1.54 nM and the “EMax, OVCAR 5 cells (cAMP)” value stood at 92%.
As for Ac-LEGREKVRAK(Ac)I[Aib][Aib]EGK([TTDS-TTDS-TTDS-γGlu-γGlu-γGlu-Palmitoyl])STFS[αMeK]RAK(Ac)-NH2 [peptide of SEQ ID NO: 3], the “EC50 (nM), OVCAR 5 cells (cAMP)” value is 0.34 nM and the “EMax, OVCAR 5 cells (cAMP)” value came out at 97%.
With Ac-LEGREKVRAK(Ac)I[Aib][Aib]EGK([TTDS-TTDS-TTDS-γGlu-γGlu-γGlu-Stearoyl])STWS[Aib]RKK(Ac)-NH2 [peptide of SEQ ID NO: 20], the “EC50 (nM), OVCAR 5 cells (cAMP)” value turned out to be 0.15 nM and the “EMax, OVCAR 5 cells (cAMP)” value turned out to be 96%.
Take Ac-LEGREKVRAK(Ac)I[Aib][Aib]EGK([TTDS-TTDS-TTDS-γGlu-γGlu-γGlu-Palmitoyl])STFS[Aib]RAK(Ac)-NH2 [peptide of SEQ ID NO: 2]: the “EC50 (nM), OVCAR 5 cells (cAMP)” value turned out to be 2.4 nM and the “EMax, OVCAR 5 cells (cAMP)” value worked out at 99%.

B1: peptide of SEQ ID NO: 26 (peptide)
peptide: Ac-LEGREKVRAK(Ac)I[Aib][Aib]EGK([AEEA-AEEA-AEEA-AEEA-γGlu-γGlu-γGlu-Stearoyl])STFS[αMeK]RAK(Ac)-NH2
SMILES: CCCCCCCCCCCCCCCCCC(=O)N[C@@H](CCC(=O)N[C@@H](CCC(=O)N[C@@H](CCC(=O)NCCOCCOCC(=O)NCCOCCOCC(=O)NCCOCCOCC(=O)NCCOCCOCC(=O)NCCCC[C@H](NC(=O)CNC(=O)[C@H](CCC(=O)O)NC(=O)C(C)(C)NC(=O)C(C)(C)NC(=O)[C@@H](NC(=O)[C@H](CCCCNC(C)=O)NC(=O)[C@H](C)NC(=O)[C@H](CCCNC(=N)N)NC(=O)[C@@H](NC(=O)[C@H](CCCCN)NC(=O)[C@H](CCC(=O)O)NC(=O)[C@H](CCCNC(=N)N)NC(=O)CNC(=O)[C@H](CCC(=O)O)NC(=O)[C@H](CC(C)C)NC(C)=O)C(C)C)[C@@H](C)CC)C(=O)N[C@@H](CO)C(=O)N[C@H](C(=O)N[C@@H](Cc1ccccc1)C(=O)N[C@@H](CO)C(=O)N[C@@](C)(CCCCN)C(=O)N[C@@H](CCCNC(=N)N)C(=O)N[C@@H](C)C(=O)N[C@@H](CCCCNC(C)=O)C(N)=O)[C@@H](C)O)C(=O)O)C(=O)O)C(=O)O
For B1, the “EC50 (nM), OVCAR 5 cells (cAMP)” value is 0.43 nM and the “EMax, OVCAR 5 cells (cAMP)” value is 96%.

B2: peptide of SEQ ID NO: 19 (peptide)
peptide: Ac-LEGREKVRAK(Ac)I[Aib][Aib]EGK([AEEA-AEEA-AEEA-γGlu-γGlu-γGlu-Palmitoyl])STWS[Aib]RKK(Ac)-NH2
SMILES: CCCCCCCCCCCCCCCC(=O)N[C@@H](CCC(=O)N[C@@H](CCC(=O)N[C@@H](CCC(=O)NCCOCCOCC(=O)NCCOCCOCC(=O)NCCOCCOCC(=O)NCCCC[C@H](NC(=O)CNC(=O)[C@H](CCC(=O)O)NC(=O)C(C)(C)NC(=O)C(C)(C)NC(=O)[C@@H](NC(=O)[C@H](CCCCNC(C)=O)NC(=O)[C@H](C)NC(=O)[C@H](CCCNC(=N)N)NC(=O)[C@@H](NC(=O)[C@H](CCCCN)NC(=O)[C@H](CCC(=O)O)NC(=O)[C@H](CCCNC(=N)N)NC(=O)CNC(=O)[C@H](CCC(=O)O)NC(=O)[C@H](CC(C)C)NC(C)=O)C(C)C)[C@@H](C)CC)C(=O)N[C@@H](CO)C(=O)N[C@H](C(=O)N[C@@H](Cc1c[nH]c2ccccc12)C(=O)N[C@@H](CO)C(=O)NC(C)(C)C(=O)N[C@@H](CCCNC(=N)N)C(=O)N[C@@H](CCCCN)C(=O)N[C@@H](CCCCNC(C)=O)C(N)=O)[C@@H](C)O)C(=O)O)C(=O)O)C(=O)O
Take B2: the “EC50 (nM), OVCAR 5 cells (cAMP)” value came to 11.5 nM and the “EMax, OVCAR 5 cells (cAMP)” value amounted to 94%.

B3: peptide of SEQ ID NO: 22 (peptide)
peptide: LEGREKVRAXIXXEGXSTFSXRAX
modifications: Ac-L-E-G-R-E-K-V-R-A-K(Ac)-I-Aib-Aib-E-G-K(PEG2DGA-PEG2DGA-PEG2DGA-gE-gE-gE-Palm)-S-T-F-S-Mly-R-A-K(Ac)-NH2
As for B3, the “EC50 (nM), OVCAR 5 cells (cAMP)” value is 1 nM and the “EMax, OVCAR 5 cells (cAMP)” value came to 92%.
As for Ac-LEGREQVRAK(Ac)I[Aib][Aib]EGK([TTDS-TTDS-TTDS-γGlu-γGlu-γGlu-Palmitoyl])STFS[αMeK]RAK(Ac)-NH2 [peptide of SEQ ID NO: 25], the “EC50 (nM), OVCAR 5 cells (cAMP)” value was 28.7 nM and the “EMax, OVCAR 5 cells (cAMP)” value came to 100%.
For Ac-LEGREKVRAK(Ac)I[Aib][Aib]EGK([TTDS-TTDS-γGlu-γGlu-γGlu-Palmitoyl])STWS[dK]RAK(Ac)-NH2 [peptide of SEQ ID NO: 17] the same measures were 4.6 nM and 91%.

B4: peptide of SEQ ID NO: 21 (peptide)
peptide: Ac-LEGREKVRAK(Ac)I[Aib][Aib]EGK([AEEA-AEEA-AEEA-AEEA-γGlu-γGlu-γGlu-Stearoyl])STWS[Aib]RKK(Ac)-NH2
SMILES: CCCCCCCCCCCCCCCCCC(=O)N[C@@H](CCC(=O)N[C@@H](CCC(=O)N[C@@H](CCC(=O)NCCOCCOCC(=O)NCCOCCOCC(=O)NCCOCCOCC(=O)NCCOCCOCC(=O)NCCCC[C@H](NC(=O)CNC(=O)[C@H](CCC(=O)O)NC(=O)C(C)(C)NC(=O)C(C)(C)NC(=O)[C@@H](NC(=O)[C@H](CCCCNC(C)=O)NC(=O)[C@H](C)NC(=O)[C@H](CCCNC(=N)N)NC(=O)[C@@H](NC(=O)[C@H](CCCCN)NC(=O)[C@H](CCC(=O)O)NC(=O)[C@H](CCCNC(=N)N)NC(=O)CNC(=O)[C@H](CCC(=O)O)NC(=O)[C@H](CC(C)C)NC(C)=O)C(C)C)[C@@H](C)CC)C(=O)N[C@@H](CO)C(=O)N[C@H](C(=O)N[C@@H](Cc1c[nH]c2ccccc12)C(=O)N[C@@H](CO)C(=O)NC(C)(C)C(=O)N[C@@H](CCCNC(=N)N)C(=O)N[C@@H](CCCCN)C(=O)N[C@@H](CCCCNC(C)=O)C(N)=O)[C@@H](C)O)C(=O)O)C(=O)O)C(=O)O
In the case of B4, the “EC50 (nM), OVCAR 5 cells (cAMP)” value was determined as 0.65 nM and the “EMax, OVCAR 5 cells (cAMP)” value stood at 93%.
In the case of Ac-LEGREFVRAK(Ac)I[Aib][Aib]EGK([TTDS-TTDS-TTDS-γGlu-γGlu-γGlu-Palmitoyl])STFS[αMeK]RAK(Ac)-NH2 [peptide of SEQ ID NO: 24], the “EC50 (nM), OVCAR 5 cells (cAMP)” value worked out at 36.4 nM and the “EMax, OVCAR 5 cells (cAMP)” value is 100%.
In the same order, the values of Ac-LEGREKVRAK(Ac)I[Aib][Aib]EGK([TTDS-TTDS-γGlu-γGlu-γGlu-Palmitoyl])STFS[dK]RAK(Ac)-NH2 [peptide of SEQ ID NO: 16] are 6.8 nM and 88%.
Take Ac-LEGREKVRAK(Ac)I[Aib][Aib]EGK([TTDS-TTDS-TTDS-γGlu-γGlu-γGlu-Palmitoyl])STF[Aib]KRAK(Ac)-NH2 [peptide of SEQ ID NO: 15]: the “EC50 (nM), OVCAR 5 cells (cAMP)” value is 2.1 nM and the “EMax, OVCAR 5 cells (cAMP)” value was 85%.
Take Ac-LEGRELVRAK(Ac)I[Aib][Aib]EGK([TTDS-TTDS-TTDS-γGlu-γGlu-γGlu-Palmitoyl])STFS[αMeK]RAK(Ac)-NH2 [peptide of SEQ ID NO: 23]: the “EC50 (nM), OVCAR 5 cells (cAMP)” value amounted to 11.1 nM and the “EMax, OVCAR 5 cells (cAMP)” value came to 92%.
